For experiment [1], the target named is T1, human IL-17A (human, UniProt Q16552 24-155).
T1 construct: Commercial recombinant protein; also called hIL-17A; CTLA-8
T1 sequence (looked up): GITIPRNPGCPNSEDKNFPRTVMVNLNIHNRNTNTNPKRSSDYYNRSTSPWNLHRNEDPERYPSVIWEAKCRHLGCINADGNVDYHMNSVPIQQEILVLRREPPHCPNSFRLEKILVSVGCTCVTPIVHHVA
In words: blocking ELISA: 0.5 ug/ml hIL-17A coated, antibody titrated, then 10 ug/ml hIL17RA-mIgG2aFc (blocked ligand partner); OD450 falls from about 1.3 to a lower plateau of about 0.67. As for the experimental part: The effect of the anti-IL17A/F antibody (produced in Example 2) on the binding of IL-17A, IL-17F or IL17A/F to the IL-17 receptor was tested by ELISA. IL-17A, IL-17F or IL-17A/F was coated in 96 well plate with 50 μl/well protein solution (protein concentration was […]) at 4° C. overnight. The wells were blocked with 1% BSA in PBST (tween 0.05%) by 200 μl/well at room temperature for 1 hour. The wells were washed 3 times with PBST. The anti-IL17A/F antibody and isotype control antibody human IgG1 (Biolegend cat# 403102) were diluted by PBS from 30 μg/ml down to 0.0005 μg/ml ([…]). The antibodies were added into the corresponding wells (50 μl/well) and incubated at room temperature for 4 hours. The wells were washed 3 times with PBST. hIL17RA-mIgG2aFc (10 μg/ml, in-house production according to standard molecular biology technology, Carson S, Molecular Biology Techniques, 2012) were added into each well (50 μl/well) and incubated at room temperature for 1 hour. The wells were washed 3 times with PBST. Goat anti-human IgG-HRP (1:5000 in PBS, EASYBIO Cat# BE0102) were added into each well (50 μl/well) and incubated at room temperature for 30 min. The wells were washed 6 times with PBST. […] The plate was read at 450 nm and 570 nm.
For orientation: In an ELISA, binding on a coated surface is turned into a signal by an enzyme label.

The target in experiment [2] is T2, human IL-17D (human, UniProt Q8TAD2 18-202, limits assumed).
T2 construct: Commercial recombinant protein
T2 sequence (looked up): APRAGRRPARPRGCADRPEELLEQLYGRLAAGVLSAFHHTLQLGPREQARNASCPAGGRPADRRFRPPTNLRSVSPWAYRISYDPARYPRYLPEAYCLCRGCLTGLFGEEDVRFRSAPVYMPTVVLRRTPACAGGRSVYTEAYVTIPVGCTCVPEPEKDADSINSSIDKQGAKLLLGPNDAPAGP
In words: ELISA, cytokine coated at 2 µg/ml. As to the method:
(§1) MaxiSorp 96-well plates (NUNC # 449824, www.thermofisher.com) were coated with 2 μg/ml human IL-17A (Cell Signaling #89285F, www.cellsignal.com), human IL-17F (Cell Signaling #8906LC, www.cellsignal.com), human IL-17B (Peprotech #200-28, www.peprotech.com), human IL-17C (R&D systems #1234-IL-025/CF, www.rndsystems.com), human IL-17D ((Peprotech #200-27, www.peprotech.com), human IL-17E (R&D systems #1258-IL-025/CF, www.rndsystems.com) in 1× PBS (50 μl/well) respectively. Plates were incubated at 4° C. overnight. Coating solution was removed and plates were washed once with 200 μl/well PBST (1× PBS with 0.05% tween-20). Then 200 μl/well blocking buffer (1× PBS with 0.05% tween-20, 3% BSA) was added and incubated at room temperature for 1 hour. Blocking buffer was removed and plates were washed three times with 200 μl/well PBST (1× PBS with 0.05% tween-20). The anti-IL17A/F antibody, hIgG VH1-1/VL5, was diluted to […], 0.000102, 0.000034 μg/ml by 1× PBS and added to the plates (50 μl/well). Plates were incubated at room temperature for 2 hours. Antibodies in the wells were removed and plates were washed three times with 200 μl/well PBST (1× PBS with 0.05% tween-20). Goat anti-human IgG(H&L)—HRP secondary antibody (Jackson Immuno Research #109-035-088, www.jacksonimmuno.com) was diluted 1:5000 in 1× PBS and added to each well (50 μl/well). Plates were incubated at room temperature for 1 hour. Secondary antibody was removed and plates were washed seven times with 200 μl/well PBST (1× PBS with 0.05% tween-20). 50 μl/well TMB (eBioscience # 85-00-4201-56, www.ebioscience.com) was added and plates were incubated at room temperature for several minutes. Then 50 μl/well 2N H₂SO₄ was added to stop the reaction. Plates were read at 450 nm. […] So, the hIgG VH1-1/VL5 antibody has binding specificity to human IL-17A and 17F and has no cross-reactivity to other IL-17 family members.

The target in experiment [3] is T3, human IL-17B (human, UniProt Q9UHF5 21-180).
T3 construct: Commercial recombinant protein
T3 sequence (looked up): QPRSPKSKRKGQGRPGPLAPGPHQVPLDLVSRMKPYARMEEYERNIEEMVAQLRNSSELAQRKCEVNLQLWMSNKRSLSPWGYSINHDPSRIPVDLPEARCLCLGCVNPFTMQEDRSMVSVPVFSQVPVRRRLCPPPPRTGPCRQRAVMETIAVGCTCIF
In words: ELISA, cytokine coated at 2 µg/ml. As for the experimental part: as §1

Experiment [4] addresses T4, human IL-17E (human, UniProt Q9H293 33-177).
T4 construct: Commercial recombinant protein; also called IL-25
T4 sequence (looked up): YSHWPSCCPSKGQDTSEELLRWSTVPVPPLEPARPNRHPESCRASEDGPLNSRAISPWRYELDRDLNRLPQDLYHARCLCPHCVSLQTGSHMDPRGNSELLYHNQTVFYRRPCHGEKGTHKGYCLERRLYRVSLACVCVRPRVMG
Put plainly: ELISA, cytokine coated at 2 µg/ml. As for the experimental part: as §1

The target of experiment [5] is T5, human IL-17C (human, UniProt Q9P0M4 19-197).
T5 construct: Commercial recombinant protein
T5 sequence (looked up): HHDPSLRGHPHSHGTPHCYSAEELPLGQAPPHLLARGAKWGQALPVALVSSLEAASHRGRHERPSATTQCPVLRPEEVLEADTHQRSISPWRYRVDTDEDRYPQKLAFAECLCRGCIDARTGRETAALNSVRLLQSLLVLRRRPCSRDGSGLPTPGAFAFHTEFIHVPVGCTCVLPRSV
In words: ELISA, cytokine coated at 2 µg/ml. As for the experimental part: as §1

Experiment [6] addresses T6, human IL-17F (human, UniProt Q96PD4 31-163).
T6 construct: Commercial recombinant protein; also called hIL-17F
T6 sequence (looked up): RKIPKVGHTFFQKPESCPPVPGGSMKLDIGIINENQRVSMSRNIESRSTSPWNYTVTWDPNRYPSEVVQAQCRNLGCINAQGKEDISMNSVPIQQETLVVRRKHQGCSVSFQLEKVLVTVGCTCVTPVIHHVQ
Put plainly: ELISA, human IL-17F coated at 2 µg/ml. As to the method:
MaxiSorp 96-well plates (NUNC # 449824, www.thermofisher.com) were coated with 2 μg/ml human IL-17A (Cell Signaling #89285F, www.cellsignal.com), human IL-17F (Cell Signaling #8906LC, www.cellsignal.com), human IL-17B (Peprotech #200-28, www.peprotech.com), human IL-17C (R&D systems #1234-IL-025/CF, www.rndsystems.com), human IL-17D ((Peprotech #200-27, www.peprotech.com), human IL-17E (R&D systems #1258-IL-025/CF, www.rndsystems.com) in 1× PBS (50 μl/well) respectively. Plates were incubated at 4° C. overnight. Coating solution was removed and plates were washed once with 200 μl/well PBST (1× PBS with 0.05% tween-20). Then 200 μl/well blocking buffer (1× PBS with 0.05% tween-20, 3% BSA) was added and incubated at room temperature for 1 hour. Blocking buffer was removed and plates were washed three times with 200 μl/well PBST (1× PBS with 0.05% tween-20). The anti-IL17A/F antibody, hIgG VH1-1/VL5, was diluted to 10, 3.33, 1.11, 0.37, 0.123, 0.041, 0.0137, 0.0046, 0.0015, 0.00031, 0.000102, 0.000034 μg/ml by 1× PBS and added to the plates (50 μl/well). Plates were incubated at room temperature for 2 hours. Antibodies in the wells were removed and plates were washed three times with 200 μl/well PBST (1× PBS with 0.05% tween-20). […] Plates were read at 450 nm. […]

The target of experiment [7] is T7, IL-17A/F heterodimer (UniProt Q16552 24-155; Q96PD4 31-163, limits assumed).
T7 sequence (looked up) 1: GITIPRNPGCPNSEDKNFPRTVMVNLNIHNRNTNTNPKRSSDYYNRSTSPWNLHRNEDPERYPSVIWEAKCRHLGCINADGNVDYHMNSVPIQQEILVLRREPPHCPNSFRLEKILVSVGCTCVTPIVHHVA
T7 sequence (looked up) 2: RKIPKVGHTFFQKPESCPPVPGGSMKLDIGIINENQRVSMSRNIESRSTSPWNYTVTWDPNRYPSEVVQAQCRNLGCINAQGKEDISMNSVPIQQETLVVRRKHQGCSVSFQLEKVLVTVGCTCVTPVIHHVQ
Put plainly: cell-based or functional assay.

In experiment [8] the target is T1, human IL-17A. In words: cell-based or functional assay.
The target of experiment [9] is T6, human IL-17F. In words: cell-based or functional assay.

B1: anti-IL17A/F antibody hIgG VH1-1/VL5 (antibody, V domains shown)
VH: QFQLVQSGAEVKKPGASVKVSCKASGYTFTDYNLNWVRQAPGKGLEWMGVIHPDYGTTSYNQKFKDRVTMTVDTSTSTVYMELSSLRSEDTAVYYCVRYDYGDAMDYWGQGTLVTVSS
VL: DIVMTQSPLSLSVTPGQPASISCRSSQSLVHSNGNTYLHWYLQKPGQPPQLLIYKVSNRFSGVPDRFSGSGSGTDFTLKISRVEAEDVGVYYCSQSTHVPLTFGQGTKLEIKR
notes: also called VH1-1/VL5 mAb; hIgGc VH1-1/VL5
B1: in [1], the midpoint of inhibition, the IC50, lay at 0.72 nM. For the same molecule, the binding result in [2], in [3], in experiment [4] and in experiment [5] was “no binding” throughout. In experiment [6], this molecule came in with a half-maximal effective concentration (EC50) of 0.047 nM. In addition, the “IC50 of inhibition of IL-17A/F heterodimer-induced IL-6 production in HFF-1 cells” value in experiment [7] stood at 0.99 nM. For the same molecule, in experiment [8], the “IC50 of inhibition of IL-17A-induced IL-6 production in HFF-1 cells” value worked out at 1.73 nM. Besides, the “IC50 of inhibition of IL-17F-induced IL-6 production in HFF-1 cells” value in [9] worked out at 1.77 nM.

What is called IC50 is the concentration needed to halve the response being measured. Lower therefore signals greater potency. In general, EC50 refers to the concentration needed to bring the measured effect to its halfway point.

(Values after patent US20200031919A1 (SUZHOU KANOVA BIOPHARMACEUTICAL, published 2020).)
